This note sets out measurements from patent US20040214992A1, “Mutation induced optimization of receptor signal to noise ratio” (priority 2001, published 2004).

The test system of assay [1] is CCR-3 receptor. The assay is described as follows: SRE-Luc + Gq5i luciferase reporter assay, wild-type or mutant CCR-3 receptor. Type of assay: cell-based, human. As to conditions: luciferase activity; for Ligand-stimulated Activity / Basal Activity: average of 5 experiments; for Basal Activity: no ligand. The source says:
(§1) Alternatively, Gαi coupling can also be measured using a positive assay (i.e., one that yields an increase in activity upon receptor activation), instead of a negative assay (i.e., one that yields a decrease in activity upon receptor activation). This assay provides a more detectable output signal and less interassay variation. In one such assay, a chimeric G protein (Gq5i, Broach and Thomer, Nature 384 (Suppl.):14-16 (1996)) that contains the entire Gαq protein having the five C-terminal amino acids from Gαi attached to the C-terminus of Gαq is used. This chimeric G protein is recognized as Gαi by Gαi coupled receptors, but switches the receptor induced signaling from Gαi to Gαq. This allows Gαi receptor coupling to be detected using a positive assay by use of a Gαq responsive SMS-Luc or SRE-Luc construct (Stratagene, La Jolla, Calif.). SMS and SRE preferably respond to Gαq mediated inositol and calcium production. Moreover, detection can be carried out in the absence of forskolin pre-stimulation of cells.
(§2) The basal activity of the Tyr235Glu mutant CCR-3 receptor was assessed using a luciferase assay. The CCR-3 receptor is a Gαi coupled receptor. Therefore, we chose to use the SRE-Luc+Gq5i reporter system, described in detail above (Broach and Thorner, supra), which switches the signaling pathway from Gαi to Gαq for reliable positive readout. The luciferase assay was carried out as described above for the serotonin 2A receptor.

Assay [2] concerns the target T1, CCR-3 receptor (Homo sapiens, UniProt P51677, Y235E).
T1 construct: expressed in transfected cells; host or cells: HEK293 (inferred: assay 'as described above for the serotonin 2A receptor')
T1 sequence (P51677 1-355 Y235E): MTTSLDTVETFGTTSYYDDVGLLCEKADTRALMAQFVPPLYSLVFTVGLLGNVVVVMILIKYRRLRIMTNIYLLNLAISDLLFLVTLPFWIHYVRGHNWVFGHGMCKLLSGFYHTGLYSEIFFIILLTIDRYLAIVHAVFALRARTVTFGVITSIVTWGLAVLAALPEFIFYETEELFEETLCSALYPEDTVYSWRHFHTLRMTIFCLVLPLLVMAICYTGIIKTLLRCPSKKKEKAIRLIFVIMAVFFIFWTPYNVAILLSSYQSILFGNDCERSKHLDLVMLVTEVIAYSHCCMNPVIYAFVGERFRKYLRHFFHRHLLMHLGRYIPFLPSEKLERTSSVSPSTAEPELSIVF
The description is as above. The settings on record: basal activity of mutant vs wild-type. It is filed as cell-based.
Text: as §1, §2

Substitutions are numbered along the chain they refer to.

B1: Lys323Glu CCR-3: silenced mutant CCR-3 receptor with Tyr to Glu substitution at position 235 of SEQ ID NO: 2 (protein, UniProt P51677 1-355, looked up, variant Y235E)
C-C chemokine receptor type 3: T1 sequence (P51677 1-355 Y235E)
As for B1, in the assay on CCR-3 receptor [1], the “Stimulated/Basal Ratio” value was 12, the “Ligand-stimulated Activity” value is listed as 151,445 and the “Basal Activity” value was 12,626. For the same molecule, the “basal activity compared to wild-type receptor (in words)” value with CCR-3 receptor [2] was “decrease in basal activity”.

B2: wild-type CCR-3: wild-type CC chemokine receptor 3 (CCR-3), G protein-coupled receptor, SEQ ID NO: 2 (protein, UniProt P51677 1-355, looked up)
C-C chemokine receptor type 3: T1 sequence (P51677 1-355 Y235E) with E235Y
Consider B2, for which, in the assay with CCR-3 receptor [1], the “Stimulated/Basal Ratio” value is given as 4.7, the “Ligand-stimulated Activity” value is on record as 157,389 and the “Basal Activity” value was 33,177.
